This data set can be described thus: Unfolding of apoA-I by guanidine hydrochloride. It counts as physicochemical. The protocol:
FIG. 4. Unfolding of apoA-I in spherical (POPC)rHDL, (PLPC)rHDL, (PAPC)rHDL and (PDPC)rHDL. (POPC)rHDL, (PLPC)rHDL, (PAPC)rHDL, (PDPC)rHDL and lipid-free apoA-I were incubated with 0-8 M GdnHCl for 0 (◯), 5 ( ), and 24 (●) h. Values represent the mean of at least three determinations. Experimental errors for the wavelength of maximum fluorescence are ±1.0 nm.
FIG. 5. Kinetics of the unfolding of apoA-I in spherical (POPC)rHDL, (PLPC)rHDL, (PAPC)rHDL and (PDPC)rHDL. Spherical (POPC)rHDL ( ), (PLPC)rHDL ( ), (PAPC)rHDL (●), (PDPC)rHDL ( ) and lipid-free apoA-I (◯) were incubated with 3.5 M GdnHCl for 0-24 h. The wavelengths of maximum fluorescence represent the mean±sd of triplicate determinations.
The unfolding of apoA-I was determined by incubating the rHDL preparations at 25° C. for 0-24 h in the presence of 0-8.0 M guanidine hydrochloride (11).

Regarding “lipid-free apoA-I: Apolipoprotein A-I purified from delipidated HDL of pooled human plasma, used as lipid-free comparator”, the “rate of unfolding of apoA-I” value (3.5 M GdnHCl, 0-24 h) was “unfolded rapidly and completely”. Moreover, under “25° C.”, the “concentration of GdnHCl required to achieve 50% unfolding of apoA-I” value came out at 1.0 M.

(Values after patent US20040266662A1, “Spheroidal hdl particles with a defined phospholipid composition” (priority 2001, published 2004).)
